Test results reported in publication PMC9364023, “In vitro single molecule and bulk phase studies reveal the AP-1 transcription factor cFos binds to DNA without its partner cJun” (The Journal of Biological Chemistry, 2022).
Blank lines part the entries; values can stand above or below the molecule they belong to. Where no end group is shown, it is not given here.

Key:
[1] = biological target: cFos bZIP region (137-193) synthetic peptide, C-terminally biotin-tagged (human); test: Qdot blinking analysis of single molecules on DNA tightropes; Qdot 655 conjugates only; blinks counted in 50 kymographs of 60 s for each protein; dual Poisson model fitted to cJun and cFos together; HSABC buffer; monomer to dimer on DNA
[2] = biological target: cFos bZIP region (137-193) synthetic peptide, C-terminally biotin-tagged (human); test: dual-colour single-molecule fluorescence imaging on DNA tightropes; biotinylated peptide conjugated to premixed equimolar streptavidin Qdot 605 and Qdot 655 (100 nM peptide, 200 nM Qdots, diluted 50-fold); bound to Lambda DNA tightropes; HSABC buffer (50 mM Tris pH 7.5, 150 mM KCl, 10 mM MgCl2); room temperature (20 C); dual-coloured spots counted among DNA-bound molecules; monomer to dimer on DNA
[3] = biological target: the molecule itself; test: as above

percent dimer (fit of Qdot blinking) [1]: 45.8%
percent of DNA-bound entities that were dual-colored [2]: 15%
percent of DNA-bound molecules dimerized [2]: 30%
stoichiometry N [2]: 2
Molecule: cFos bZIP region (137-193) synthetic peptide, C-terminally biotin-tagged

B1: cJun bZIP region (252-308) synthetic peptide, C-terminally biotin-tagged (peptide)
chain: RIKAERKRMRNRIAASKCRKRKLERIARLEEKVKTLKAQNYELASTANMLREQVAQLGAP-biotin
notes: bZIP region of cJun, residues 252-308 as stated; gly-ala-pro spacer before the C-terminal biotin; In the tightrope assays the peptide was conjugated through its biotin to streptavidin-coated Qdot 655 and/or Qdot 605; It holds the bZIP domain only; source: synthetic peptide (PeptideSynthetics)
stoichiometry N [3]: 2
